Results as given in publication PMC314469, “Protein Interaction Networks by Proteome Peptide Scanning” (PLoS Biology, 2004).

B1: Q9H3P5 284-297 (peptide)
chain: LQRQLKRPRPVILD
B2: O43295 603-616 (peptide)
chain: LRPPPMRPVRPVVQ
B3: Q96LS1 115-128 (peptide)
chain: LQPRPRRPREAADT
B4: O14789 574-588 (peptide)
chain: LRKRPLKPPAKKIM
B5: Q04727 335-349 (peptide)
chain: LRPVPGKPPGVDPL
B6: Q9NWJ0 49-62 (peptide)
chain: LRPVPRRPSTWSRR
B7: Q96JV6 461-474 (peptide)
chain: LRATLKRPEVIATS
B8: Q9UNU2 285-298 (peptide)
chain: LRAMPSRPPRLLAT
B9: Q9NVU6 531-544 (peptide)
chain: LQRRLKRPETPTHD
B10: P19429 134-147 (peptide)
chain: LRGKFKRPTLRRVR
B11: P12270 2055-2069 (peptide)
chain: APQSPRRPPHPLPP
B12: Q9Y566 1372-1386 (peptide)
chain: APQPPPRPPSPRYE
B13: Q16753 167-180 (peptide)
chain: LRQPLRRPFRPNGL
B14: Q15653 147-160 (peptide)
chain: LQPRPRRPREAPDT
B15: P48788 102-115 (peptide)
chain: LRGKFKRPPLRRVR
B16: Q06481 479-492 (peptide)
chain: LQSDPPRPHRILQA
B17: Q9P2E3 383-396 (peptide)
chain: LREDFVRPLREGIL

Target: T1, amphyphisin SH3 (AMPH_HUMAN), P49418
T1 chain: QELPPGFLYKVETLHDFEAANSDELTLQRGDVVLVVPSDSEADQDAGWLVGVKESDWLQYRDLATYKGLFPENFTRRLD
Experiment: SPOT array

Binder | normalised SPOT signal, Boehringer light units (BLU); mean over the file's lines of this peptide
B1 | 41.9
B2 | 7210
B3 | 371
B4 | 91.3
B5 | 66.4
B6 | 2420
B7 | 37.9
B8 | 5160
B9 | 28.9
B10 | 23.3
B11 | 339
B12 | 1320
B13 | 1690
B14 | 412
B15 | 35.8
B16 | 170
B17 | 5300

target: endophilin SH3 (SH3G2_HUMAN), Q99962; experiment: SPOT array

Binder | normalised SPOT signal, Boehringer light units (BLU); mean over the file's lines of this peptide
B1 | 194
B2 | 16200
B3 | 329
B4 | 6220
B5 | 32.5
B6 | 4830
B7 | 97.1
B8 | 7160
B9 | 41.8
B10 | 38
B11 | 2810
B12 | 14500
B13 | 489
B14 | 222
B15 | 50.6
B16 | 184
B17 | 208
